This note sets out measurements from patent US20160152995A1, “METHODS AND COMPOSITIONS TO IMPROVE THE SPREAD OF CHEMICAL SIGNALS IN PLANTS” (PIONEER HI-BRED INTERNATIONAL, INC., priority 2013, published 2016).

Substitutions are numbered along the chain they refer to.

For series [1], the system named is β-gal background activity. The series is described as follows: First and second round library screen (L1, L2) for induction by sulfonylurea ligands, β-gal colony assay. Format: cell-based, E. coli. Conditions: for Inducer preference: β-gal colony assay, L2 library screened with each ligand at 2 ppm, numbers are the patent's inducer ligand numbers, atc for wt. An excerpt:
The original library was designed to thifensulfuron, but once induction activity was established with other SU compounds having potentially better soil and in planta stability properties than the original ligand, the evolution process was re-directed towards these alternative ligands. Of particular interest were herbicides metsulfuron, sulfometuron, ethametsulfuron and chlorsulfuron. For this objective, parental clones L1-9, -22, -29 and -44 were chosen for further shuffling. Clone L1-9 has strong activity on both ethametsulfuron and chlorsulfuron; clone L1-22 has strong sulfometuron activity; clone L1-29 has moderate metsulfuron activity; and clone L1-44 has moderate activity on metsulfuron, ethametsulfuron and chlorsulfuron. (Data not shown.). No clones found in the initial screen were exceptionally reactive to metsulfuron. These four clones were also chosen due to their relatively strong repressor activity, showing low β-gal background activity without inducer. Strong repressor activity is important for establishing a system which is both highly sensitive to the presence of inducer, and tightly off in the absence of inducer.
Based on the sequence information from parental clones L1-9, -22, -29 and -44, two second round libraries were designed, constructed and screened. The first library, L2, consisted of a ‘family’ shuffle whereby the amino acid diversity between the selected parental clones was varied using synthetic assembly of oligonucleotides to find clones improved in responsiveness to any of the four new target ligands.
The L2 oligonucleotides were assembled, cloned and screened as per the protocol described for library L1 except that each ligand was tested at 2 ppm to increase the stringency of the assay, which is a 10-fold reduction from 1st round library screening concentration.

Series [2] concerns E. coli assay strain Km3. The series is described as follows: Liquid B-galactosidase assays of chlorsulfuron repressor hits (induction and repression). Conditions: for IND = induction with 20 ppb CS (B-galactosidase) / REP = repression in absence of inducer (B-galactosidase) / F. IND = fold induction (IND/REP) (B-galactosidase): CsL4.2 hits. The method, then:
In order to create new diversity for shuffling the top clone from CsL3 was subjected to error prone PCR mutagenesis using Mutazyme (Stratagene). The mutated PCR product encoding the CsR ligand binding domain was inserted into library expression vector pVER7334 as a Sac1 to Asc1 fragment, transformed into library strain Km3 and plated onto LB+40 ug/ml Kanamycin and 50 ug/ml Carbenecillin. Approximately 10,000 colonies were then replica plated onto M9 Xgal assay medium +/−20 ppb Cs. Putative hits were then re-arrayed and replica plated onto the same assay medium. Performance was gauged by the level of blue colony color after 24 hrs incubation on inducer (induction) and 72 hrs incubation without inducer (repression). The top hits were then subjected to liquid B-galactosidase assays for quantitative assessment (Table 21).
Seventh round library CsL4.2 was designed based on the best diversity from CsL3 and CsL3-MTZ library screens (Table 14). The library was assembled with oligonucleotides shown below in Table 22. The first and last primers were used as rescue primers. CsL4.2 included a C-terminal 6×His-tag extension to facilitate protein purification. The library was assembled and cloned into vector pVER7334 Sac1 to Asc1, transformed into library assay strain Km3 and plated onto LB+40 ug/m1 Kanamycin and 50 ug/ml carbenecillin. Approximately 8,000 colonies were re-arrayed into 384-well format and replica plated onto M9 Xgal assay medium +/−2 ppb Cs. Putative hits were re-arrayed in 96-well format onto the same media for re-testing. Confirmed hits were then tested for induction and repression aspects in liquid culture using B-galactosidase assays.
Mutagenesis reactions were transformed into E. coli assay strain Km3 and plated onto LB+50 ug/ml Carbenecillin. Colonies were then re-arrayed into 384 well format and replica plated onto M9 Xgal assay medium +/−5 ppb Chlorsulfuron. Putative hits were then re-arrayed and analyzed by B-galactosidase assays relative to the parent clones (FIG. 10).

Series [3] has as its system E. coli assay strain Km3. Format: cell-based. Put shortly: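 Clones in KM3 replica-stamped onto M9 X-gal assay plates with no inducer, 0.2 ppm or 2.0 ppm chlorsulfuron and incubated ~48 h at 30° C. Induction scored as blue colony colour, with colour intensity measured from digital plate images at several time points.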
Setting [4] is: library L1 initial screen, data not shown.
Where [5] appears, read: liquid B-galactosidase assay, 20 ppb Cs.
Setting [6] is: liquid B-galactosidase assay, no inducer.

B1: clone L1-22: SuR polypeptide, SEQ ID NO:7 (protein)
chain: MGSRLDKSKVINSALELLNEVGIEGLTTRKLAQKLGVEQPTLYWHVKNKRALLDALAIEMMDRHHTHFCPLEGESWQDFLRNTAKSYRCALLSHRDGAKVCLGTAITEKQYETKENNLAFLCQQGFSLENALYARQAVRVFTLGCVLFDQEMQVAKEERETPTTDSMPPLLRQASELLDHQGAEPAFLFGLELIICGLEKQLKSESGS
modifications: Sulfonylurea responsive repressor
In the case of B1, the “induction activity on sulfometuron” value in series [1] (setting [4]) was “strong”. The same molecule had an Inducer preference in series [1] of 3.

B2: CsL4.2-20: Chlorsulfuron (Cs) repressor, top hit of library CsL4.2 (protein)
chain: MARLDKSKVINSALELLNEVGIEGLTTRKLAQKLGVEQPTLYWHVKNKRALLDALAIEMHDRHQTHYLPLEGESWQDFLRNFAKSMRLALLSHRDGAKVSLGTRWTEQQYETAENMLAFLTQQGFSLENALYATDAVRVFTLGAVLLDQEQQVAKEERETPTPDSMPPLLRQAWELKVHQGAEPAFLFGLELIIAGLEKQLKRESGS
modifications: Sulfonylurea responsive repressor
B2: in the series with E. coli assay strain Km3 [2] (setting [5]), the “IND = induction with 20 ppb CS (B-galactosidase)” value is given as 7.4. Besides, the “REP = repression in absence of inducer (B-galactosidase)” value (“REP = repression … (B-galactosidase)” below) in the series with E. coli assay strain Km3 [2] (setting [6]) amounted to 0.2.

B3: clone L1-44: SuR polypeptide, SEQ ID NO:13 (protein)
chain: MGSRLDKSKVINSALELLNEVGIEGLTTRKLAQKLGVEQPTLYWHVKNKRALLDALAIEMLDRHATHFCPLEGESWQDFLRNNAKSYRCALLSHRDGAKVYLGTAVTEKQYETAENQLAFLCQQGFSLENALYAVKAVAGFTLGCVLWDQESQVAKEERETPTTASMPPLLRQAVELADHQGAEPAFLFGLELIICGLEKQLKCESGS
modifications: Sulfonylurea responsive repressor
For the molecule B3, in series [1] (setting [4]), the “induction activity on chlorsulfuron” value is “moderate”, the “induction activity on ethametsulfuron” value is “moderate” and the “induction activity on metsulfuron” value is “moderate”. Moreover, the Inducer preference in series [1] is 9 (weak).

B4: L8-3F01: library L8 chlorsulfuron repressor hit, parent for saturation mutagenesis (protein)
chain: MARLDKSKVINSALELLNEVGIEGLTTRKLAQKLGVEQPTLYWHVKNKRALLDALAIEMMDRHQTHYLPLEGESWQDFLRNNAKSCRRALLSHRDGAKVCLGTRWTEQQYETAENMLAFLTQQGFSLENALYAVSAVRVFTLGAVLFDQESQVAKEERETPTTDSMPPLLRQAWELKDHQGAEPAFLFGLELIIAGLEKQLKRESGS
modifications: Sulfonylurea responsive repressor
notes: library L8 chlorsulfuron repressor hit, parent for saturation mutagenesis
On to B4, for which, in the series on E. coli assay strain Km3 [3] (CsL3 hits, 20 ppb Cs vs no inducer), the “F. IND = fold induction (IND/REP) (Colony Assay Results)” value is 2.5. Besides, the “REP = repression in absence of inducer (Colony Assay Results)” value with E. coli assay strain Km3 [3] (CsL3 hits, M9 Xgal colony color, 0 ppb Cs) is listed as 0.7. For the same molecule, the “IND = induction with 20 ppb CS (Colony Assay Results)” value in the series on E. coli assay strain Km3 [3] (CsL3 hits, M9 Xgal colony color, 20 ppb Cs) stood at 1.6. Further, the “IND = induction with 200 ppb Cs at 24 hrs (blue colony color intensity thru ImageJ analysis)” value in the series with E. coli assay strain Km3 [3] (library L8 hits, M9 Xgal colony assay, 200 ppb Chlorsulfuron, 24 hrs) came to 1.7. The “F. IND = fold induction: induction with 200 ppb Cs at 24 hrs/repression at 48 hrs” value with E. coli assay strain Km3 [3] (library L8 hits, M9 Xgal colony assay, ratio IND (200 ppb Cs, 24 hrs) / REP (48 hrs)) worked out at 3.0. Besides, the “REP = repression measured without inducer after 48 hrs (blue colony color intensity thru ImageJ analysis)” value in the series with E. coli assay strain Km3 [3] (library L8 hits, M9 Xgal colony assay, without inducer, 48 hrs) is listed as 0.6. Further, the “F. IND = fold induction (IND/REP) (B-galactosidase assay)” value with E. coli assay strain Km3 [2] (CsL3-MTZ hits, 20 ppb Cs vs no inducer) is on record as 1. Besides, the “IND = induction with 20 ppb CS (B-galactosidase assay)” value in the series on E. coli assay strain Km3 [2] (CsL3-MTZ hits, liquid B-galactosidase assay, 20 ppb Cs) is listed as 8. In addition, the “REP = repression in absence of inducer (B-galactosidase assay)” value with E. coli assay strain Km3 [2] (CsL3-MTZ hits, liquid B-galactosidase assay, no inducer) is 7. In the series with E. coli assay strain Km3 [2] (20 ppb Cs vs no inducer), the “F. IND = fold induction (IND/REP) (B-galactosidase)” value came out at 2.0. In addition, the “IND = induction with 20 ppb CS (B-galactosidase)” value with E. coli assay strain Km3 [2] (setting [5]) is recorded as 0.9. Besides, in the series on E. coli assay strain Km3 [2] (setting [6]), the “REP = repression … (B-galactosidase)” value came out at 0.4.

B5: clone L1-29: SuR polypeptide, SEQ ID NO:10 (protein)
chain: MGSRLDKSKVINSALELLNEVGIEGLTTRKLAQKLGVEQPTLYWHVKNKRALLDALAIEMMDRHQTHFCPLEGESWQDFLRNTAKSMRCALLSHRDGAKVWLGTRWTEKQYETPENMLAFLCQQGFSLENALYAWSAVCNFTLGCVLSDQERQVAKEERETPTTDSMPPLLRQAWELSDHQGAEPAFLFGLELIICGLEKQLKCESGS
modifications: Sulfonylurea responsive repressor
With B5, in series [1] (setting [4]), the “induction activity on metsulfuron” value was “moderate”. Also, the Inducer preference in series [1] was 9 (weak).

B6: CsL4.2-17 (protein)
chain: MARLDKSKVINSALELLNEVGIEGLTTRKLAQKLGVEQPTLYWHVKNKRALLDALAIEMMDRHQTHYLPLEGESWQDYLRNFAKSMRCALLSHRDGAKVALGTRWTEQQYETAENMLAFLTQQGFSLENALYATSAVRVFTLGAVLLDQEQQVAKEERETPTTDSMPPLLRQAWELKVHQGAEPAFLFGLELIIAGLEKQLKRESGSHHHHHH
modifications: Sulfonylurea responsive repressor
Consider B6, for which the “F. IND = fold induction (IND/REP) (B-galactosidase)” value with E. coli assay strain Km3 [2] (20 ppb Cs vs no inducer) is on record as 9.7. In addition, the “IND = induction with 20 ppb CS (B-galactosidase)” value with E. coli assay strain Km3 [2] (setting [5]) came to 3.1. Further, the “REP = repression … (B-galactosidase)” value in the series on E. coli assay strain Km3 [2] (setting [6]) is listed as 0.3.

B7: CsL4.2-27 (protein)
chain: B6 chain with Y78F, A100S, S135D, T163P, S165R, R171Q, V178E, E204D
modifications: Sulfonylurea responsive repressor
With B7, the “F. IND = fold induction (IND/REP) (B-galactosidase)” value with E. coli assay strain Km3 [2] (20 ppb Cs vs no inducer) is reported as 9.1. Also, the “IND = induction with 20 ppb CS (B-galactosidase)” value in the series on E. coli assay strain Km3 [2] (setting [5]) is listed as 3.2. Besides, in the series with E. coli assay strain Km3 [2] (setting [6]), the “REP = repression … (B-galactosidase)” value was 0.4.

B8: CsL4.2-12 (protein)
chain: B6 chain with M60H, Q64G, Y78F, C88R, Q151G, K155N
modifications: Sulfonylurea responsive repressor
As for B8, in the series with E. coli assay strain Km3 [2] (20 ppb Cs vs no inducer), the “F. IND = fold induction (IND/REP) (B-galactosidase)” value was 9.5. Moreover, the “IND = induction with 20 ppb CS (B-galactosidase)” value in the series with E. coli assay strain Km3 [2] (setting [5]) worked out at 6.4. In the series on E. coli assay strain Km3 [2] (setting [6]), the “REP = repression … (B-galactosidase)” value worked out at 0.7.

B9: CsL4.2-11 (protein)
chain: B6 chain with M60H, Q64G, C88R, A100S, V178E, K202X
modifications: not fully specified; Sulfonylurea responsive repressor; VARIANT 202: Xaa = Any Amino Acid
Consider B9, for which the “F. IND = fold induction (IND/REP) (B-galactosidase)” value in the series on E. coli assay strain Km3 [2] (20 ppb Cs vs no inducer) stood at 8.9. The “IND = induction with 20 ppb CS (B-galactosidase)” value in the series on E. coli assay strain Km3 [2] (setting [5]) is listed as 4.8. In addition, in the series with E. coli assay strain Km3 [2] (setting [6]), the “REP = repression … (B-galactosidase)” value is listed as 0.5.

B10: CsL4.2-18 (protein)
chain: B6 chain with Y78F, T163P, S165R, I193L
modifications: Sulfonylurea responsive repressor
Turning to B10, the “F. IND = fold induction (IND/REP) (B-galactosidase)” value in the series with E. coli assay strain Km3 [2] (20 ppb Cs vs no inducer) was 9.3. The “IND = induction with 20 ppb CS (B-galactosidase)” value with E. coli assay strain Km3 [2] (setting [5]) was found to be 6.8. Besides, in the series on E. coli assay strain Km3 [2] (setting [6]), the “REP = repression … (B-galactosidase)” value is 0.7.
